Reference: article PMC12635249
Values joined by “and” are separate entries in the source; they are usually repeats but may differ in a detail not shown here. Identical values can stand only once.

Target: PorKN heterodimer unit (P. gingivalis)
Experiment: cryo-EM structure

PorKN heterodimer unit (complex)
stoichiometry N: 31 to 35 (2×) and 33
